Experiments:
[1] = biological target: T1, SARS-CoV-2 Spike S1 domain, reference (SARS-CoV-2, UniProt P0DTC2 16-685); assay: HTRF, soluble S1 construct
T1 construct: domain: S1; also called S1 subunit

[2] = biological target: T2, SARS-CoV-2 Spike receptor binding domain (RBD), reference (USA/WA_CDC-WA1/2020) (SARS-CoV-2, UniProt P0DTC2 319-591); assay: HTRF, soluble RBD construct
[3] = biological target: T2, SARS-CoV-2 Spike receptor binding …; assay: SPR, antibody as ligand, RBD as analyte
[4] = biological target: T3, SARS-CoV-2 Spike, full-length S (FL, trimer-stabilized), reference (WA1/2020) (SARS-CoV-2, UniProt P0DTC2 14-1208); assay: SPR, antibody as ligand, Trimer as analyte
T3 construct: also called Spike trimer; intact trimer

B1: PR194_00232 (antibody, V domains shown)
VH: EVQLVESGGGLVQPGGSLRLSCSASGFTVSSNYMSWVRQAPRKGLEWVSVIYAGGSTFYADSVKGRFTISRDNSKNTLLLQMNSLRAEDTAVYYCARDRGGYLDYWGQGTLVTVSS
VL: DIQMTQSPSSLSASVGDRVTITCRASQGISNYLAWYQQKPGKVPKLLIYAASTLQSGVPSRFSGSGSGTDFTLTISSLQPEDVATYYCQKYNSAPGLTFGGGTKVEIK
notes: also called IMM20190; PR194_00190
B1 gave an EC50 [1] of 0.056 nM, an EC50 [2] of 0.0682 nM and a Kd [3] of 1.87 nM. It also gave a koff [3] of 0.000376 s⁻¹, a kon [3] of 202000 M⁻¹ s⁻¹ and a Kd [4] of 6.59 nM. For the same binder, the koff [4] was 0.000195 s⁻¹ and the kon [4] was 29500 M⁻¹ s⁻¹.

B2: PR193_00018 (antibody, V domains shown)
VH: EVQLVESGGGLVQPGGSLRLSCSASGFTFSSFWMSWVRQAPGKGLEWVATIREDGSEKYYVDSVKGRFSISRDNAKNSLYLQMNSLRAEDTAVYYCARSKWLRGSFDYWGQGTLVTVSS
VL: NFMLTQPHSVSESPGKTVTISCTRRSGSIASNYVQWYQQRPGSAPTTVIYEDNQRPSGVPDRFSGSIDSSSNSASLTISGLQTEDEADYYCQSYDSSNPPGASWVFGGGTKLTVL
notes: also called IMM20184; IMM200184
With B2 the EC50 [1] was 0.0318 nM, the EC50 [2] was 0.0448 nM and the Kd [3] was 22 nM. For the same binder, the koff [3] was 0.00131 s⁻¹, the Kd [4] was 7.35 nM and the koff [4] was 0.000229 s⁻¹. The kon [4] was 31200 M⁻¹ s⁻¹.

B3: PR200_00622 (antibody, V domains shown)
VH: QVQLVESGGGVVQPGRSLRLSCTASGFTFSTYGMHWVRQAPGKGLEWVAVISYDGSSKHYAESVKGRFTISRDNSNNTLYLQMNRLRAEDTAVYYCARDGQPPGWGNYFDYWGQGTLVTVAS
VL: SYVLTQPPSVSVAPGKTARITCGGNGIGSKSVYWYQQKPGQAPEVVVYDDSDRPSGIPERFSGSNSGNTATLTISRVEAGDEADYYCQVWDSSSDPWVFGGGTKLTVL
notes: also called IMM20253; PR200_00253
Binder B3 has an EC50 [1] of 0.0491 nM, an EC50 [2] of 0.0527 nM and a Kd [3] of 0.157 nM. The koff [3] was 0.000218 s⁻¹, the kon [3] was 1.39e+06 M⁻¹ s⁻¹ and the Kd [4] was 1.44 nM. The koff [4] was 0.000117 s⁻¹ and the kon [4] was 81300 M⁻¹ s⁻¹.

— patent US20220235118A1 (IMMUNOME, published 2022)
